Assay [1] concerns the target Eck receptor chimera (ectodomain of the Eck receptor fused to the cytoplasmic domain of the FGF receptor) on BAF cells. Put plainly: cell-based or functional assay.
For assay [2], the target named is Elk receptor on transfected 3T3 fibroblasts. The assay can be described thus: cell-based or functional assay.

The substance soluble myc-tagged Efl-1 (B61) (ligand) returned a potency in the proliferation assay, clustered against unclustered ligand in assay [1] of 100 fold.
Substance “soluble myc-tagged Efl-3 (ELK-L) (ligand)” displayed a potency in the phosphorylation assay, clustered against unclustered ligand in assay [2] of 100 fold.
With “soluble Efl-2 (EHK-1L) produced in COS cells (ligand)”, the potency in the proliferation assay, clustered against unclustered ligand in assay [1] worked out at 100 fold.

Source of the values: EP0758381B1.
